From patent US20190144559A1 (Daiichi Sankyo, published 2019) come the findings set out here.

Assay [1] deals with T1, Recombinant Human TROP-2 Fc chimera (human, UniProt P09758 27-274, limits assumed).
T1 construct: Used as the analyte in Biacore; also called antigen (Recombinant Human TROP-2 Fc chimera); not shown: Fc part and any linker of the chimera are not described
T1 sequence (looked up): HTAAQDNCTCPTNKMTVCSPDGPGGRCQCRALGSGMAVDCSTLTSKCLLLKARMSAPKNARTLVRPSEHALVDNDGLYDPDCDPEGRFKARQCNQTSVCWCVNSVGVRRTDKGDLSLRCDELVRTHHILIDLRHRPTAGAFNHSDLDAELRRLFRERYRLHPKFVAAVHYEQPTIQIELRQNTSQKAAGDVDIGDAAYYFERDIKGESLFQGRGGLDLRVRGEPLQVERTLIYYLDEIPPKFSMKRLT
The assay can be described thus: SPR Biacore 3000, purified antibody captured on anti-human IgG (Fab), antigen as analyte, bivalent model.

The target in assay [2] is T1, Recombinant Human TROP-2 Fc chimera. The assay can be described thus: SPR Biacore 3000, antibody from culture supernatant captured on anti-human IgG (Fab), antigen as analyte, bivalent model. (In SPR one partner is held on a chip, and binding of the other changes the refractive index at the surface.)

B1: hTINA1-H2L1 (antibody, human IgG1, kappa)
heavy: not shown
light: DIQMTQSPSSLSASVGDRVTITCKASQDVSTAVAWYQQKPGKAPKLLIYSASYRYTGVPSRFSGSGSGTDFTLTISSLQPEDFAVYYCQQHYITPLTFGQGTKLEIKRTVAAPSVFIFPPSDEQLKSGTASVVCLLNNFYPREAKVQWKVDNALQSGNSQESVTEQDSKDSTYSLSSTLTLSKADYEKHKVYACEVTHQGLSSPVTKSFNRGEC
notes: Human IgG1/kappa; also called hTINA1 antibody
Consider B1, for which the Kd in assay [1] was 30 nM; in assay [2], 69 nM.

B2: hTINA1-H2L2 (antibody, human IgG1, kappa)
heavy: not shown
light: DIVMTQSPSSLSASVGDRVTITCKASQDVSTAVAWYQQKPGKAPKLLIYSASYRYTGVPSRFSGSGSGTDFTLTISSLQPEDFAVYYCQQHYITPLTFGQGTKLEIKRTVAAPSVFIFPPSDEQLKSGTASVVCLLNNFYPREAKVQWKVDNALQSGNSQESVTEQDSKDSTYSLSSTLTLSKADYEKHKVYACEVTHQGLSSPVTKSFNRGEC
notes: as for B1
Regarding B2, the figures for the Kd in assay [1] and in assay [2] were 27 nM and 71 nM, respectively.

B3: hTINA1-H3L3 (antibody, human IgG1, kappa, V domains shown)
VH: QIQLVQSGAEVKKPGESVKVSCKASGYTFTTAGMQWVQQMPGKGLEWMGWINTHSGVPKYAEDFKGRVTFSLDTSTSTAYLQLSSLKSEDTAVYYCARSGFGSSYWYFDVWGQGTLVTVSS
VL: DIVMTQSPSSLSASVGDRVTITCKASQDVSTAVAWYQQKPGKQPKLLIYSASYRYTGVPSRFSGSGSGTDFTLTISSLQPEDFAVYYCQQHYITPLTFGQGTKLEIKR
notes: as for B1
Take B3: the Kd in assay [1] came to 15 nM; in assay [2], 58 nM.

B4: hTINA1-H1L1 (antibody, human IgG1, kappa, V domains shown)
VH: QVQLVQSGAEVKKPGASVKVSCKASGYTFTTAGMQWVRQAPGQGLEWMGWINTHSGVPKYAEDFKGRVTISADTSTSTAYLQLSSLKSEDTAVYYCARSGFGSSYWYFDVWGQGTLVTVSS
VL: DIQMTQSPSSLSASVGDRVTITCKASQDVSTAVAWYQQKPGKAPKLLIYSASYRYTGVPSRFSGSGSGTDFTLTISSLQPEDFAVYYCQQHYITPLTFGQGTKLEIKR
notes: Human IgG1/kappa; also called hTINA1 antibody; humanized TINA1
For B4, the Kd is 27 nM in assay [1] and 63 nM in assay [2].

B5: cTINA1 antibody (antibody, human IgG1, V domains shown)
VH: QIQLVQSGPELKKPGETVRISCKASGYTFTTAGMQWVQKMPGKGLKWIGWINTHSGVPKYAEDFKGRFAFSLETSASTAYLQISNLKNEDTTTYFCARSGFGSSYWYFDVWGAGTAVTVSS
VL: DIVMTQSHKFMSTSVGDRVSITCKASQDVSTAVAWYQQKPGQSPKLLIYSASYRYTGVPDRFTGSGSGTAFTFTISSVQAEDLAVYYCQQHYITPLTFGAGTKLELKR
notes: Mouse TINA1 variable regions on human IgG1/kappa constant regions; also called human chimeric TINA1 antibody; chimeric TINA1
As for B5, the Kd in assay [2] stood at 56 nM.

B6: hRS7 antibody (antibody, V domains shown)
VH: QVQLQQSGSELKKPGASVKVSCKASGYTFTNYGMNWVKQAPGQGLKWMGWINTYTGEPTYTDDFKGRFAFSLDTSVSTAYLQISSLKADDTAVYFCARGGFGSSYWYFDVWGQGSLVTVSS
VL: DIQLTQSPSSLSASVGDRVSITCKASQDVSIAVAWYQQKPGKAPKLLIYSASYRYTGVPDRFSGSGSGTDFTLTISSLQPEDFAVYYCQQHYITPLTFGAGTKVEIKR
With B6, in assay [1], the Kd stood at 0.3 nM.
